One experiment addresses JAK1 (Homo sapiens, UniProt P23458). In words: In vitro kinase inhibition assay, JAK1 kinase domain (JH1) with STAT5b substrate peptide. In kind it is biochemical. How it is done:
Protein kinase assays, including high throughput kinase assays are known in the art as described in, e.g., in Babon et al. (2013) and Von Ahsen et al. (2005). In one exemplary embodiment 130 μM STAT5b peptide (SEQ ID NO:18 […]) is incubated with 5 nM human JAK1 (see SEQ ID NO:11 for corresponding amino acid sequence) at 25° C. for 30-60 min in 20 mM Tris pH 8.0, 100 mM NaCl, 5 mM 2-mercaptoethanol, 0.2 mg ml^−1 bovine serum albumin, 2 mM MgCl2, 100 μM ATP and 1 μCi γ-[^32P]ATP. […] After incubation, the reaction is spotted onto P81 phosphocellulose paper and quenched in 5% H3PO4. The paper is then washed (4×200 ml, 15 min) with 5% H3PO4 and exposed to a phosphorimager plate. Quantitation is performed using phosphorimager software and IC50 curves are then calculated based on integrated pixel counts.
Kinase inhibition assays were performed essentially as described (Babon et al., 2012). Briefly, 130 μM STAT5b peptide (SEQ ID NO:18 […]) was incubated with 5 nM JAK1 at 25° C. for 30-60 min in 20 mM Tris pH 8.0, 100 mM NaCl, 5 mM 2-mercaptoethanol, 0.2 mg ml^−1 bovine serum albumin, 2 mM MgCl2, 100 μM ATP and 1 mCi γ-[32P]ATP. […] After incubation, the reaction was spotted onto P81 phosphocellulose paper and quenched in 5% H3PO4. The paper was washed (4×200 ml, 15 min) with 5% H3PO4 and exposed to a phosphorimager plate (Fuji). Quantitation was performed using Fuji software and IC50 curves calculated using Graphpad Prism.

In experiment [1] the target is T1, JAK1 phosphopeptide (JAK1-Y1034) (Homo sapiens, UniProt P23458).
T1 construct: purchased Genscript
Put plainly: ITC, CIS constructs binding to JAK1 phosphopeptide. Conditions: CIS constructs with elongins B and C. How it is done:
300 μM phosphopeptides were titrated into a 30 μM solution of the GST-CIS-SH2-BC ternary complex. ITC titration curves are shown. The titration curves all fitted well to a single-site model.
Isothermal calorimetric titrations were performed with a Microcal ITC200 (GE Healthcare). Phosphopeptides were obtained from Genscript. An optimised GST-CIS protein construct was prepared in which the internal PEST region ([…]) was deleted. The resulting ternary GST-CIS-SH2-SB complexes were dialysed against buffer (20 mM Tris pH 8.0, 100 mM NaCl, 2 mM 2-mercaptoethanol). Experiments were performed at 298 K unless stated otherwise. Typically, 12×3.15 μl injections of 300 μM phosphopeptides were titrated into a 30 μM solution of the GST-CIS-SH2-SB ternary complex. The heat of dilution of GST-CIS-SH2-BC was subtracted from the raw data of the binding experiment. Data were analysed using the evaluation software, Microcal Origin version 5.0. The binding curve fitted a single-site binding mode and all KD values were determined from duplicate experiments.
A general note: ITC needs no label: the signal is the heat of the interaction.

Chain of JAK1 (P23458 875-1153 limits assumed): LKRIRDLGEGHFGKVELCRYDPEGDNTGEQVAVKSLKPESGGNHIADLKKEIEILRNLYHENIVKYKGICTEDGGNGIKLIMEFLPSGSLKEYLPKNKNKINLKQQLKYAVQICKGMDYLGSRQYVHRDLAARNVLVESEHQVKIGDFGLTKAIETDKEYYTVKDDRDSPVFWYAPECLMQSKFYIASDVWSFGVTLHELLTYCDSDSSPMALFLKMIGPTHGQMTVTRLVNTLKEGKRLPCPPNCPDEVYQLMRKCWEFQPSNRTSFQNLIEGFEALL

B1: CIS-SH2-BC complex: recombinant trimeric complex of human GST-CIS construct (hCIS-SH2; residues 66-258) and Elongins B and C (protein)
chain: MVLCVQGSCPLLAVEQIGRRPLWAQSLELPGPAMQPLPTGAFPEEVTEETPVQAENEPKVLDPEGDLLCIAKTFSYLRESGWYWGSITASEARQHLQKMPEGTFLVRDSTHPSYLFTLSVKTTRGPTNVRIEYADSSFRLDSNCLSRPRILAFPDVVSLVQHYVASCAADTRSDSPDPAPTPALPMSKQDAPSDSVLPIPVATAVHLKLVQPFVRRSSARSLQHLCRLVINRLVADVDCLPLPRRMADYLRQYPFQL
modifications: left off: small tags and cut ends
notes: recombinant trimeric complex of human GST-CIS construct (hCIS-SH2; residues 66-258) and Elongins B and C
As to B1, the IC50 in the experiment with JAK1 (JAK1 JH1, in vitro kinase reaction, read-out: IC50, inhibition of JAK1 phosphorylation of a substrate peptide) amounted to 0.12 ± 0.02 µM. Also, in the experiment with JAK1 (JH1 domains of all four JAKs), the “Inhibition of JAK1 relative to inhibition of JAK2, JAK3 or TYK2” value is not below 20 fold. Moreover, the “Lower efficiency of JAK1 inhibition than SOCS1” value with JAK1 (compared with SOCS1) worked out at 100 fold.

B2: CIS-ΔN34: human CIS lacking the N-terminal 34 residues, in complex with elongins B and C (protein, UniProt Q9NSE2 35-258, looked up, fragment)
chain: QPLPAGAFLEEVAEGTPAQTESEPKVLDPEEDLLCIAKTFSYLRESGWYWGSITASEARQHLQKMPEGTFLVRDSTHPSYLFTLSVKTTRGPTNVRIEYADSSFRLDSNCLSRPRILAFPDVVSLVQHYVASCTADTRSDSPDPAPTPALPMPKEDAPSDPALPAPPPATAVHLKLVQPFVRRSSARSLQHLCRLVINRLVADVDCLPLPRRMADYLRQYPFQL
modifications: complex with elongins B and C
With B2, the “Binding affinity (ITC) to JAK1 phosphopeptide” value in experiment [1] is given as “greatest reduction in binding”.

The IC50 is the concentration that inhibits the measured activity by half.

The values above are taken from US11104735B2, “Inhibition of cytokine-induced SH2 protein in NK cells” (The Walter and Eliza Hall Institute of Medical Research, priority 2015, dated 2021).
